Laboratory results reported in paper PMC11994318, “In vitro characterization of the yeast DEAH/RHA RNA helicase Dhr1” (The Journal of Biological Chemistry, 2025).

B1: ΔN-Dhr1-ΔSKTTD (domain or fragment, Saccharomyces cerevisiae, UniProt Q04217 376-1267, looked up)
chain: VEVSRSDEIQKARIQLPVFGEEHKIMEAIHHNDVVIICGETGSGKTTQVPQFLYEAGFGAEDSPDYPGMVGITQPRRVAAVSMAERVANELGDHGHKVGYQIRFDSTAKEDTKVKFMTDGVLLREMMHDFKLTKYSSIIIDEAHERNINTDILIGMLSRCVRLRAKLHKENPIEHKKLKLIIMSATLRVSDFSENKTLFPIAPPVLQVDARQFPVSIHFNRRTAFNYTDEAFRKTCKIHQKLPPGAILVFLTGQQEITHMVKRLRKEFPFKKNSKYNKDLETPVSKMGINLEAEDIDFSVQVIDQDKFKSAIRYEEDEGNSGNGEDEEDEEEEGFEEVLTEGQTANDPLYVLPLYSLLPTKEQMRVFQKPPQGSRLCIVATNVAETSLTIPGVRYVVDSGRSKERKYNESNGVQSFEVGWVSKASANQRSGRAGRTGPGHCYRLYSSAVFEHDFEQFSKPEILRMPVESIVLQMKSMAIHNIINFPFPTPPDRVALSKAIQLLQYLGALDNKEMITEDGKKMSLFPLSPRFSKMLLVSDEKACLPYIVAIVSALSVGDPFINEFELGINEISRKPNPDENLDDKIREHDESTPGMDPELKKELRSKFYKSRSQFSKLDKFSDVFRLLSVVSAMDYVPKEQKEIFMKKNFLRGKLMEEIVKLRKQLMYIIKSNTSKENIAVVIRNEDLKSDIPSVIQIKLLKQMICAGFVDHVAVRADVLFPDDAKITNRTSIINIPYIPVLATRTPNIEDCFVYIHPTSILNNLGEMPPKYMLYYSLHLGGNNKTRMNTLCDIASTPLANIARKGLLLTYSKPLTGQGLKTVNLSPTERYCYVVPRFGSTVDNDLKIGWDLNPIAVHQKKQKGQWTVIKFITRKGFQTITGEEKEKK
notes: Dhr1 (Ecm16) of Saccharomyces cerevisiae, residues 1-375 deleted and the five residues SKTTD (aa 666-670) of loop 1 deleted; also called ΔN-ΔSKTTD; ΔNΔSKTTD; source: E. coli Codon+ BL21 (DE3) RIL (AJE854), purified (HisTrap FF, HiTrap Capto SP)
B2: ΔN-Dhr1-WT (Δ1 to 375-Dhr1) (domain or fragment, Saccharomyces cerevisiae, UniProt Q04217 376-1267, looked up)
chain: VEVSRSDEIQKARIQLPVFGEEHKIMEAIHHNDVVIICGETGSGKTTQVPQFLYEAGFGAEDSPDYPGMVGITQPRRVAAVSMAERVANELGDHGHKVGYQIRFDSTAKEDTKVKFMTDGVLLREMMHDFKLTKYSSIIIDEAHERNINTDILIGMLSRCVRLRAKLHKENPIEHKKLKLIIMSATLRVSDFSENKTLFPIAPPVLQVDARQFPVSIHFNRRTAFNYTDEAFRKTCKIHQKLPPGAILVFLTGQQEITHMVKRLRKEFPFKKNSKYNKDLETPVSKMGINSKTTDLEAEDIDFSVQVIDQDKFKSAIRYEEDEGNSGNGEDEEDEEEEGFEEVLTEGQTANDPLYVLPLYSLLPTKEQMRVFQKPPQGSRLCIVATNVAETSLTIPGVRYVVDSGRSKERKYNESNGVQSFEVGWVSKASANQRSGRAGRTGPGHCYRLYSSAVFEHDFEQFSKPEILRMPVESIVLQMKSMAIHNIINFPFPTPPDRVALSKAIQLLQYLGALDNKEMITEDGKKMSLFPLSPRFSKMLLVSDEKACLPYIVAIVSALSVGDPFINEFELGINEISRKPNPDENLDDKIREHDESTPGMDPELKKELRSKFYKSRSQFSKLDKFSDVFRLLSVVSAMDYVPKEQKEIFMKKNFLRGKLMEEIVKLRKQLMYIIKSNTSKENIAVVIRNEDLKSDIPSVIQIKLLKQMICAGFVDHVAVRADVLFPDDAKITNRTSIINIPYIPVLATRTPNIEDCFVYIHPTSILNNLGEMPPKYMLYYSLHLGGNNKTRMNTLCDIASTPLANIARKGLLLTYSKPLTGQGLKTVNLSPTERYCYVVPRFGSTVDNDLKIGWDLNPIAVHQKKQKGQWTVIKFITRKGFQTITGEEKEKK
notes: Dhr1 (Ecm16), DEAH/RHA RNA helicase of Saccharomyces cerevisiae, residues 1-375 deleted; Cloned into pET21a(+) with a C-terminal Hisx6 tag; also called ΔN-WT; dhr1-Δ1–375 (ΔN); source: E. coli Codon+ BL21 (DE3) RIL (AJE854), purified (HisTrap FF, HiTrap Capto SP)
B3: ΔN-Dhr1-YCK (RecA2 surface mutant) (domain or fragment, Saccharomyces cerevisiae, UniProt Q04217 376-1267, looked up)
chain: VEVSRSDEIQKARIQLPVFGEEHKIMEAIHHNDVVIICGETGSGKTTQVPQFLYEAGFGAEDSPDYPGMVGITQPRRVAAVSMAERVANELGDHGHKVGYQIRFDSTAKEDTKVKFMTDGVLLREMMHDFKLTKYSSIIIDEAHERNINTDILIGMLSRCVRLRAKLHKENPIEHKKLKLIIMSATLRVSDFSENKTLFPIAPPVLQVDARQFPVSIYFNCRTAFNYTDEAFRKTCKIHQKLPPGAILVFLTGQQEITHMVKRLRKEFPFKKNSKYNKDLETPVSKMGINSKTTDLEAEDIDFSVQVIDQDKFKSAIRYEEDEGNSGNGEDEEDEEEEGFEEVLTEGQTANDPLYVLPLYSLLPTKEQMRVFQKPPQGSRLCIVATNVAETSLTIPGVRYVVDSGRSKERKYNESNGVQSFEVGWVSKASANQRSGRAGRTGPGHCYRLYSSAVFKHDFEQFSKPEILRMPVESIVLQMKSMAIHNIINFPFPTPPDRVALSKAIQLLQYLGALDNKEMITEDGKKMSLFPLSPRFSKMLLVSDEKACLPYIVAIVSALSVGDPFINEFELGINEISRKPNPDENLDDKIREHDESTPGMDPELKKELRSKFYKSRSQFSKLDKFSDVFRLLSVVSAMDYVPKEQKEIFMKKNFLRGKLMEEIVKLRKQLMYIIKSNTSKENIAVVIRNEDLKSDIPSVIQIKLLKQMICAGFVDHVAVRADVLFPDDAKITNRTSIINIPYIPVLATRTPNIEDCFVYIHPTSILNNLGEMPPKYMLYYSLHLGGNNKTRMNTLCDIASTPLANIARKGLLLTYSKPLTGQGLKTVNLSPTERYCYVVPRFGSTVDNDLKIGWDLNPIAVHQKKQKGQWTVIKFITRKGFQTITGEEKEKK
notes: Dhr1 (Ecm16) of Saccharomyces cerevisiae, residues 1-375 deleted, with three mutations on the RecA2 surface; also called ΔN-Dhr1-RecA2; ΔN-Dhr1-RecA2-mutants; source: E. coli Codon+ BL21 (DE3) RIL (AJE854), purified (HisTrap FF, HiTrap Capto SP)

Each binder was assayed against T1, Utp14-G (aa 710–800), fusion to maltose binding protein (Saccharomyces cerevisiae, UniProt Q04500 710-800) (assay: mass photometry; Dhr1 variant and Utp14-G mixed at a 1:1 ratio; TwoMP instrument, room temperature (25.3 °C); 40 mM Tris–HCl pH 8.0, 40 mM KCl, 150 mM NaCl, 2 mM NaOAc, 2 mM DTT, 10 mM MgCl2, 4% glycerol). Conditions: both partners purified.
T1 construct: Purified as a fusion to MBP; the tag is cleavable with TEV protease but no cleavage is described; source: E. coli Codon+ BL21 (DE3) RIL (AJE854), purified (HisTrap HP, HiTrap Q HP); not shown: MBP, N-terminal, kept
T1 sequence (looked up): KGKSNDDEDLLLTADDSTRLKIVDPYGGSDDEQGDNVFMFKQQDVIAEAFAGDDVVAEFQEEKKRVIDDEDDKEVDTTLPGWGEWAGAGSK
B1 gave a percent complex of 48%.
B2 gave a percent complex of 23%.
In the case of B3, the percent complex is reported as 16%.
